One assay has as its target T1, activin B (Homo sapiens, UniProt P09529).
T1 sequence (P09529 293-407): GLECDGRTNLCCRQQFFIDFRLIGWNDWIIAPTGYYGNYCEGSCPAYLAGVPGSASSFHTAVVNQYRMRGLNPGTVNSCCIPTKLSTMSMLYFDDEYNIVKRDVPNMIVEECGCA
Description: A-204 Reporter Gene Assay (Example 13). The format is cell-based. An excerpt:
(§1) In addition, an A-204 Reporter Gene Assay was used to evaluate the effects of ALK4-Fc:ActRIIB-Fc heterodimer and ActRIIB-Fc:ActRIIB-Fc homodimer on signaling by activin A, activin B, GDF11, GDF8, BMP10, and BMP9. Cell line: Human Rhabdomyosarcoma (derived from muscle). Reporter vector: pGL3(CAGA)12 (as described in Dennler et al, 1998, EMBO 17: 3091-3100). The CAGA12 motif is present in TGFβ responsive genes (PAI-1 gene), so this vector is of general use for factors signaling through Smads. An exemplary A-204 Reporter Gene Assay is outlined below. • Day 1: Split A-204 cells into 48-well plate. • Day 2: A-204 cells transfected with 10 ug pGL3(CAGA)12 or pGL3(CAGA)12(10 ug)+pRLCMV (1 ug) and Fugene. • Day 3: Add factors (diluted into medium+0.1% BSA). Inhibitors need to be pre-incubated with Factors for about one hr before adding to cells. About six hrs later, cells are rinsed with PBS and then lysed.
(§2) Following the above steps, a Luciferase assay was performed.

Assay [1] addresses T2, BMP9 (Homo sapiens, UniProt Q9UK05).
T2 sequence (Q9UK05 320-429): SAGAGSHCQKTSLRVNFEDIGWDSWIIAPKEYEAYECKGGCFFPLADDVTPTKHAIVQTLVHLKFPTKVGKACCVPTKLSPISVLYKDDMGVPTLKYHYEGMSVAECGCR
Description: A-204 Reporter Gene Assay (Example 13). The assay is classed as cell-based.
Source text: as §1, §2
In general terms: Reporter assays use an easily measured gene product as a stand-in for the process of interest.

Assay [2] addresses T3, BMP10 (Homo sapiens, UniProt O95393).
T3 sequence (O95393 317-424): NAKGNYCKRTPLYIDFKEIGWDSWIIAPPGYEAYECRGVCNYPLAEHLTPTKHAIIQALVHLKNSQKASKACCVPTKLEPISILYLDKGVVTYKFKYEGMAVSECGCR
Description: A-204 Reporter Gene Assay (Example 13). The format is cell-based.
Source text: as §1, §2

In a further assay the target is T4, GDF11 (Homo sapiens, UniProt O95390).
T4 sequence (O95390 299-407): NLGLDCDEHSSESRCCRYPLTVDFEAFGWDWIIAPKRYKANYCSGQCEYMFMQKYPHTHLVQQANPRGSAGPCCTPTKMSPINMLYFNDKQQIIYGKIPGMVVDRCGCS
The assay can be described thus: A-204 reporter gene assay, pGL3(CAGA)12 luciferase. The assay is classed as cell-based. The conditions noted are these: A-204 reporter gene assay. Put shortly: (§3)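 Human rhabdomyosarcoma A-204 cells transfected with SMAD-responsive pGL3(CAGA)12 luciferase reporter (optionally with pRLCMV). Ligand in medium + 0.1% BSA, preincubated ~1 h with Fc-fusion inhibitor before addition to cells; after ~6 h cells lysed and luciferase activity measured.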

In another assay the target is T5, GDF8 (Homo sapiens, UniProt O14793).
T5 sequence (O14793 267-375): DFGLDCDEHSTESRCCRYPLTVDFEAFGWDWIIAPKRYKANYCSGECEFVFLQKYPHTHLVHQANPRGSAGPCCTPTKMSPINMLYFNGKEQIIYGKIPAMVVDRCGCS
The assay can be described thus: A-204 reporter gene assay, pGL3(CAGA)12 luciferase. The format is cell-based.
Source text: An A-204 reporter gene assay was used to evaluate the effects of ActRIIB-Fc proteins and ActRIIB variant Fc fusion polypeptides on signaling by GDF-11 and activin A. Cell line: human rhabdomyosarcoma (derived from muscle). Reporter vector: pGL3(CAGA)12 (described in Dennler et al, 1998, EMBO 17: 3091-3100). The CAGA12 motif is present in TGF-beta responsive genes (e.g., PAI-1 gene), so this vector is of general use for factors signaling through SMADs.
Day 1: Split A-204 cells into 48-well plate.
Day 2: A-204 cells transfected with 10 ug pGL3(CAGA)12 or pGL3(CAGA)12(10 ug)+pRLCMV (1 pg) and Fugene.
Day 3: Add factors (diluted into medium+0.1% BSA). Inhibitors need to be preincubated with factors for 1 hr before adding to cells. Six hrs later, cells were rinsed with PBS and lysed.
This is followed by a luciferase assay.
As described below, ActRIIB variants were also tested in this assay.
as §1, §2

The target in assay [3] is T6, activin A (Homo sapiens, UniProt P08476).
T6 sequence (P08476 311-426): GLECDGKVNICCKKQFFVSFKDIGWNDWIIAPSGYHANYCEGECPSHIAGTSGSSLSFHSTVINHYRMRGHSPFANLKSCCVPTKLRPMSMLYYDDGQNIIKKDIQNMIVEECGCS
The assay can be described thus: A-204 reporter gene assay, pGL3(CAGA)12 luciferase. The format is cell-based. The following applies: A-204 reporter gene assay. Put shortly: as §3

The target in assay [4] is T2, BMP9. Description: Biacore ligand binding profile, ALK4-Fc:ActRIIB-Fc heterodimer vs homodimers, anti-Fc capture (Example 13, Table 13). The method, then: (§4) A Biacore™-based binding assay was used to compare ligand binding selectivity of the ALK4-Fc:ActRIIB-Fc heterodimeric complex described above with that of ActRIIB-Fc and ALK4-Fc homodimer complexes. The ALK4-Fc:ActRIeB-Fc heterodimer, […], and ALK4-Fc homodimer were independently captured onto the system using an anti-Fc antibody. Ligands were injected and allowed to flow over the captured receptor protein. Results are summarized in Table 13 below, in which ligand off-rates (kd) most indicative of effective polypeptides are denoted in bold.

The target of assay [5] is T6, activin A. The assay is described as above. The method, then: as §4
The target in a further assay is T7, GDF3 (Homo sapiens, UniProt Q9NR23).
T7 sequence (Q9NR23 251-364): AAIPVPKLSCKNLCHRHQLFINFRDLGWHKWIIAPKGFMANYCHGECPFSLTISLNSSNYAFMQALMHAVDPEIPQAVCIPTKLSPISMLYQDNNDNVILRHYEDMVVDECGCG
The description is as above. The procedure: as §4

For assay [6], the target named is T3, BMP10. The description is as above. The procedure:
as §4

“Also recorded” adds a separate entry of the source.

B1: ALK4-Fc:ActRIIB-Fc heterodimer: heteromeric complex of extracellular domains of human ActRIIB and human ALK4, each separately fused to an Fc domain with a linker (protein)
chain 1: GRGEAETRECIYYNANWELERTNQSGLERCEGEQDKRLHCYASWRNSSGTIELVKKGCWLDDFNCYDRQECVATEENPQVYFCCCEGNFCNERFTHLPEAGGPEVTYEPPPTAPTGGGTHTCPPCPAPELLGGPSVFLFPPKPKDTLMISRTPEVTCVVVDVSHEDPEVKFNWYVDGVEVHNAKTKPREEQYNSTYRVVSVLTVLHQDWLNGKEYKCKVSNKALPAPIEKTISKAKGQPREPQVYTLPPSRKEMTKNQVSLTCLVKGFYPSDIAVEWESNGQPENNYKTTPPVLKSDGSFFLYSKLTVDKSRWQQGNVFSCSVMHEALHNHYTQKSLSLSPGK
chain 2: SGPRGVQALLCACTSCLQANYTCETDGACMVSIFNLDGMEHHVRTCIPKVELVPAGKPFYCLSSEDLRNTHCCYTDYCNRIDLRVPSGHLKEPEHPSMWGPVETGGGTHTCPPCPAPELLGGPSVFLFPPKPKDTLMISRTPEVTCVVVDVSHEDPEVKFNWYVDGVEVHNAKTKPREEQYNSTYRVVSVLTVLHQDWLNGKEYKCKVSNKALPAPIEKTISKAKGQPREPQVYTLPPSREEMTKNQVSLTCLVKGFYPSDIAVEWESNGQPENNYDTTPPVLDSDGSFFLYSDLTVDKSRWQQGNVFSCSVMHEALHNHYTQKSLSLSPG
Turning to B1, the “inhibition of activin B signaling” value in the assay with activin B is listed as “potent inhibitors”. The “inhibition of BMP9 signaling” value in the assay with BMP9 [1] is given as “significantly reduced”. Besides, the “inhibition of BMP10 signaling” value in the assay with BMP10 [2] is given as “significantly reduced”. Besides, in the assay with GDF11, the “inhibition of GDF11 signaling” value is “potent inhibitors”. In addition, the “inhibition of GDF8 signaling” value with GDF8 was “potent inhibitors”. In addition, the “inhibition of activin A signaling” value with activin A [3] is given as “potent inhibitors”. Moreover, the “BMP9 binding” value in the assay with BMP9 [4] (Example 13) is given as “substantially reduced binding; also recorded: low or no observable affinity”. Further, the kd entry in the assay with BMP9 [4] (ligand BMP9, Table 13) was “Transient*”; in the assay with activin A [5] (ligand Activin A, Table 13), 0.00015 s⁻¹; in the assay with GDF3 (ligand GDF3, Table 13), 0.017 s⁻¹; in the assay with BMP10 [6] (ligand BMP10, Table 13), 0.0041 s⁻¹. Moreover, the “activin A binding” value in the assay with activin A [5] (Example 13) was “strong binding”. For the same molecule, the ka came to 1.3e+07 M⁻¹ s⁻¹ with activin A [5] (ligand Activin A, Table 13); 3.4e+06 M⁻¹ s⁻¹ with GDF3 (ligand GDF3, Table 13); 5.6e+07 M⁻¹ s⁻¹ with BMP10 [6] (ligand BMP10, Table 13). The “GDF3 binding” value in the assay with GDF3 (Example 13) is recorded as “substantially reduced binding”. Moreover, in the assay with BMP10 [6] (Example 13), the “BMP10 binding” value is listed as “substantially reduced binding”.

Values taken from US20230129812A1, “COMPOSITIONS AND METHODS FOR TREATING PULMONARY HYPERTENSION” (Acceleron Pharma Inc., priority 2020, published 2023).
